Legend:
[1] = target: monkey integrins on CV-1 and RF/6A cells; assay: flow cytometry on CV-1 (monkey) cells, detection with an antibody against the Fc domain [panel CV-1 (monkey]
[2] = target: monkey integrins on CV-1 and RF/6A cells; assay: flow cytometry on RF/6A (monkey) cells, bound protein detected with an antibody against the Fc domain; cell of the drawn KD table, column RF/6A [KD table]
[3] = target: monkey integrins on CV-1 and RF/6A cells; assay: flow cytometry on CV-1 (monkey) cells, bound protein detected with an antibody against the Fc domain; cell of the drawn KD table, column CV-1 [KD table]
[4] = target: rat integrins on Rat2 cells (rat fibroblasts); assay: flow cytometry on Rat2 (rat fibroblast) cells, detection with an antibody against the Fc domain; cell of the drawn KD table, column Rat2 [KD table]
[5] = target: rabbit integrins on SIRC cells (rabbit corneal cells); assay: flow cytometry on SIRC (rabbit cornea) cells, detection with an antibody against the Fc domain; cell of the drawn KD table, column SIRC [KD table]
[6] = target: human integrins on U87MG cells (human tumor cells); assay: flow cytometry on U87MG (human) cells, bound protein detected with an antibody against the Fc domain; cell of the drawn KD table, column U87MG [KD table]

EC50 (read off the curve) [1] | Kd [2] | Kd [3] | Kd [4] | Kd [5] | Kd [6] | Molecule
2 nM | 0.5 nM | 1.5 nM | 1.01 nM | 0.288 nM | – | NOD201 (2.5F peptide fused to human IgG1 Fc; no linker) (Fc fusion)
– | – | – | – | – | 0.7 nM | NOD201M (NOD201 with murine Fc domain; no linker) (Fc fusion) GCPRPRGDNPPLTCSQDSDCLAGCVCGPNGFCGEPRVPITQNPCPPLKECPPCAAPDLLGGPSVFIFPPKIKDVLMISLSPMVTCVVVDVSEDDPDVQISWFVNNVEVHTAQTQTHREDYNSTLRVVSALPIQHQDWMSGKEFKCKVNNRALPSPIEKTISKPRGPVRAPQVYVLPPPAEEMTKKEFSLTCMITGFLPAEIAVDWTSNGRTEQNYKNTATVLDSDGSYFMYSKLRVQKSTWERGSLFACSVVHEGLHNHLTTKTISRSLG

Source: patent publication US20210077576A1
